From paper PMC6126627

Legend:
Test in all cases: ELISA
[1] = molecular target: human plasma fibronectin (human)
[2] = molecular target: human plasma vitronectin (human)
[3] = molecular target: murine sarcoma laminin (mouse) (UniProt P19137)

Substance: full-length recombinant P4 (rP4^G22-K274), Haemophilus lipoprotein e (from UniProt P26093 22-274) (natural protein)
- Kd [1]: 10.2 nM
- Kd [2]: 16.5 nM
- Kd [3]: 9.26 nM
